The target in assay [1] is T1, human CEACAM5, recombinant (R&D Systems #4128-CM-050) (human, UniProt P06731 35-685).
T1 construct: Bought; coated in ELISA and used as monomeric analyte in Octet; also called hCEACAM-5; Human CEACAM5-His; not shown: His tag
T1 sequence (looked up): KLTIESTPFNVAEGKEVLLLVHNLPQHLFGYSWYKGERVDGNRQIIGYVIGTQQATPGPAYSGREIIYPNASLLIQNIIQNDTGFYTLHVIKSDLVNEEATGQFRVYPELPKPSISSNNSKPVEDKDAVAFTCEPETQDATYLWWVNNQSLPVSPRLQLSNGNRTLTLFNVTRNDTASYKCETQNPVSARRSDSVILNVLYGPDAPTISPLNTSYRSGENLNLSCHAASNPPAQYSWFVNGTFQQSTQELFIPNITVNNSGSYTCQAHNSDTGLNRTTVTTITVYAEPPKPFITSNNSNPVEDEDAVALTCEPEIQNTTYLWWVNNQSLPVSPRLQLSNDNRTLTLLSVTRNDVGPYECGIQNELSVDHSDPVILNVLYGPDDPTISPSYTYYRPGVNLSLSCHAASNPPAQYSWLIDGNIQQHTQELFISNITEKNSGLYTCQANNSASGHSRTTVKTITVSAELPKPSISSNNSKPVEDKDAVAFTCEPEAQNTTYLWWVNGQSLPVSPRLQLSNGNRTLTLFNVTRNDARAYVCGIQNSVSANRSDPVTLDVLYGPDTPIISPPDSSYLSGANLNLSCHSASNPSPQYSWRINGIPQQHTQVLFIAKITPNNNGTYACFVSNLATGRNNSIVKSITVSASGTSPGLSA
Briefly: dual-target ELISA: hCEACAM-5 coated, bsAb titrated, detected with biotinylated hCD40-muIg and streptavidin-HRP, luminescence; signal needs both targets bound. The procedure: (§1) 96-well plates were coated with 0.5 μg/mL antigen, hCEACAM-1 (2244-CM-050, R&D Systems), hCEACAM-5 (4128-CM-050, R&D Systems), hCEACAM-6 (3934-CM-050, R&D Systems) or CEACAM-8 (9639-CM-050, R&D Systems) in PBS over night at 4° C. After washing in PBS/0.05% Tween 20 (PBST), the plates were blocked with PBST, 2% BSA for at least 30 minutes at room temperature before a second round of washing. RUBY bsAbs, diluted in PBST, 0.5% BSA, were then added and allowed to bind for at least 1 hour at room temperature. […] Finally, a final round of washing was performed and bound complexes detected using SuperSignal Pico Luminescent as substrate and luminescence signals were measured using Fluostar Optima.
In general terms: ELISA stands for enzyme-linked immunosorbent assay.

Assay [2] addresses T1, human CEACAM5, recombinant (R&D Systems …). The experiment in a line: Octet BLI, captured bsAb, monomeric CEACAM5 in solution, 1:1 fit. The procedure: (§2) Kinetic measurements were performed in the Octet RED96 platform using several different setups. […] Monomeric human CD40-His-Avi tag (Acro Biosystems #CD0-H5228), monomeric Human CEACAM5-His (R&D Systems #4128-CM-050) or monomeric Cynomolgus CEACAM5-His (Sino Biological #90891-C08H) were ½ serially diluted in 1× kinetic buffer (Sartorius) starting at 500 nM or 100 nM. […] Binding kinetics was studied in 1× kinetic buffer where association was allowed for 100 sec, 300 sec or 600 sec followed by dissociation for 100 sec, 300 sec or 3600 sec. Sensor tips were regenerated with 10 mM Glycine pH 1.7. Data generated were referenced by subtracting blank or parallel buffer blank, the baseline was aligned to the y-axis, inter-step correction by alignment against dissociation was performed and the data was smoothed by Savitzky-Golay filter in the data analysis software (v9.0.0.14). The processed data was fitted using a 1:1 Langmuir binding model with R² or X² as a measurement of fitting accuracy.
Association was measured for 100 sec and dissociation was measured for 100 sec.

The target is the same in assay [3]. Briefly: Octet BLI, captured bsAb, soluble antigen, 1:1 fit. The procedure: as §2
Association was measured for 100 sec and dissociation for 300 sec.
For orientation: BLI is a label-free optical method that tracks binding on a fibre tip over time.

The target in assay [4] is human CD40 expressed on cells (CD40 reporter cells, HEK Blue CD40L cells, primary B cells, tumour APCs) (human, UniProt P25942 21-277). Briefly: cell-based or functional assay.
Sequence of human CD40 expressed on cells (CD40 reporter cells, HEK Blue CD40L cells, primary B cells, tumour APCs) (P25942 21-277): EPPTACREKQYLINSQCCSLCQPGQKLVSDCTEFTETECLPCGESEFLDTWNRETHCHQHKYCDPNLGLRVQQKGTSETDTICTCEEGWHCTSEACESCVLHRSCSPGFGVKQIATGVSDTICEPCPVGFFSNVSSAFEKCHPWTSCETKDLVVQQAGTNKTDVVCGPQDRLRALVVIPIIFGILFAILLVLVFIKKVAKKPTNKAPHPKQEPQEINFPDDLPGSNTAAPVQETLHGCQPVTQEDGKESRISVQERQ
The target of assay [5] is T1, human CEACAM5, recombinant (R&D Systems …). The experiment in a line: ELISA, antigen coated at 0.5 µg/mL, bsAb titrated, anti-human kappa-HRP, luminescence. The procedure:
as §1

The target in assay [6] is T2, biotinylated human CEACAM5-His (Acro Biosystems #CE5-H82E0) (human, UniProt P06731 35-685, biotinylated (site not stated)).
T2 construct: also called CEACAM5-biotin; captured human CEACAM5-biotin; not shown: His tag
T2 sequence (looked up): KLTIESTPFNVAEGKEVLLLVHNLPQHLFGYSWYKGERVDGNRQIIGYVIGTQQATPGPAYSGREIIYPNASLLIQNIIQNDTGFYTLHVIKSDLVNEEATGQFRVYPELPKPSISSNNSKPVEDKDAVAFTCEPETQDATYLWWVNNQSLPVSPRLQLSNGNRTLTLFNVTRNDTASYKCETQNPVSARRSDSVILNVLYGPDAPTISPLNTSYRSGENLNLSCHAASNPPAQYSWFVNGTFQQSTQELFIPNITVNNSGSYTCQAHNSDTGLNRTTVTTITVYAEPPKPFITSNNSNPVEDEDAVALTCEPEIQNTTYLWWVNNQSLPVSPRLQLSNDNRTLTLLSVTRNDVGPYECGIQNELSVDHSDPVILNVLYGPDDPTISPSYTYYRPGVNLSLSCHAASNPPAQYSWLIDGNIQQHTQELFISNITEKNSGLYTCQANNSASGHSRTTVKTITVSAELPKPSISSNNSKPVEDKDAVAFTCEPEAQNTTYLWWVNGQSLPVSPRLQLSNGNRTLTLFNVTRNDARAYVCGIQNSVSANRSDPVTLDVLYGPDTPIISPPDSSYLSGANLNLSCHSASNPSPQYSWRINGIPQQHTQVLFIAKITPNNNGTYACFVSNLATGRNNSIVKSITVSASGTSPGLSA
Briefly: Octet BLI, captured CEACAM5-biotin, bsAb in solution, 1:1 fit. Here is the method:
as §2
Association was measured for 100 sec and dissociation measured for 100 sec.

By EC50 (read off the curve) is commonly meant the midpoint of the concentration-response curve. As usually defined, the Kd is a measure of binding affinity in units of concentration. As usually defined, the koff is a measure of how fast the partners let go of each other. Broadly, the kon is the rate constant with which the complex forms.

B1: AC_05339 (bispecific antibody)
heavy 1: not shown
light: DIQMTQSPSSLSASVGDRVTITCRASQSISSYLNWYQEKPGKAPKLLIYAASSLQSGVPSRFSGSGSGTDFTLTISSLQPEDFATYYCQQAGNPHTFGQGTKLEIKRTVAAPSVFIFPPSDEQLKSGTASVVCYLNNFYPREAKVQWKVDNALQSGNSQESVTEQDSKDSTYSLWSTLTLSKADYEKHKVYACEVTHQGLSSPVTKSFNRGEC
heavy 2: EVQLLESGGGLVQPGGSLRLSCAASGFTFSTYGMHWVREAPGKGLEWLSYISGGSSYIFYADSVRGRFTISRDNSENALYLQMNSLRAEDTAVYYCARILRGGSGMDLWGQGTLVTVSSASTKGPSVFPLAPSSKSTSGGTAALGCLVKDYFPEPVTVSWNSGALTSGVHTFPAVLQSSGLYSLSSVVEVPSSSLGTQTYICNVNHKPSNTKVDKKVEPKSC
notes: RUBY format, CEACAM5xCD40; also called AC_5339
As for B1, the “EC50 (read off the curve)” value in assay [1] is about 300 pM. Further, in assay [2], the Kd was found to be 1800 pM, the koff worked out at 0.00042 s⁻¹ and the kon worked out at 240000 M⁻¹ s⁻¹. Besides, in assay [3], the Kd is under 1 pM, the koff was under 1e-07 s⁻¹ and the kon was found to be 520000 M⁻¹ s⁻¹. In assay [4], the “EC50 of SEAP release, HEK Blue CD40L reporter cells, bsAb crosslinked to CHO-CEACAM5 cells, 0 Raji sink cells/well” value was 30 pM; the “EC50 of SEAP release, same assay, 10 000 Raji sink cells/well” value stood at 50 pM; the “EC50 of SEAP release, same assay, 30 000 Raji sink cells/well” value stood at 80 pM; the “EC50 of SEAP release, same assay, 90 000 Raji sink cells/well” value was found to be 230 pM.

B2: Multi44 (bispecific antibody)
heavy 1: not shown
light: DIQMTQSPSSLSASVGDRVTITCRASQSISSYLNWYQEKPGKAPKLLIYAASSLQSGVPSRFSGSGSGTDFTLTISSLQPEDFATYYCQQWGYLLTFGQGTKLEIKRTVAAPSVFIFPPSDEQLKSGTASVVCYLNNFYPREAKVQWKVDNALQSGNSQESVTEQDSKDSTYSLWSTLTLSKADYEKHKVYACEVTHQGLSSPVTKSFNRGEC
heavy 2: EVQLLESGGGLVQPGGSLRLSCAASGFTFSTYGMHWVREAPGKGLEWLSYISGGSSYIFYADSVKGRFTISRDNSKNTLYLQMNSLRAEDTAVYYCARILRGGSGMDLWGQGTLVTVSSASTKGPSVFPLAPSSKSTSGGTAALGCLVKDYFPEPVTVSWNSGALTSGVHTFPAVLQSSGLYSLTSVVEVPSSSLGTQTYICNVNHKPSNTKVDKKVEPKSC
notes: Optimised RUBY format, CEACAM5xCD40
In the case of B2, the “EC50 (read off the curve)” value in assay [1] is about 800 pM. Also, in assay [2], the Kd was 13000 pM, the koff was determined as 0.0023 s⁻¹ and the kon stood at 180000 M⁻¹ s⁻¹. Besides, the “EC50 (read off the curve)” value in assay [5] was about 500 pM. Moreover, in assay [6], the Kd was under 1 pM, the koff is under 1e-07 s⁻¹ and the kon was 150000 M⁻¹ s⁻¹. Further, in assay [4], the “EC50 of SEAP release, HEK Blue CD40L reporter cells, bsAb crosslinked to CHO-CEACAM5 cells, 0 Raji sink cells/well” value was determined as 20 pM; the “EC50 of SEAP release, same assay, 10 000 Raji sink cells/well” value is 50 pM; the “EC50 of SEAP release, same assay, 30 000 Raji sink cells/well” value was 80 pM; the “EC50 of SEAP release, same assay, 90 000 Raji sink cells/well” value stood at 160 pM.

These data come from US20260146107A1 (ALLIGATOR BIOSCIENCE, published 2026).
